In data set [1] the target is T1, p53 (GST fusion) (UniProt P04637 1-393). The experiment in a line: EMSA; 100-500 nM GST-p53, no BRCA1; 50 mM NaCl, 10 mM Tris-HCl pH 8.0, 0.5 mM EDTA, 1 mM DTT, 5% glycerol; 6% native PAGE in TAE at 4 C; incubation temperature not stated. The settings on record: protein: recombinant, tags: N-terminal GST, uncleaved (pGEX2TKp53), chain copies: 4, label: 5'-32P when used as probe.

The target of data set [2] is T2, BRCA1 230-534 (UniProt P38398 230-534). Kind of data set: competition EMSA; 0.5 uM labelled linear duplex, 5 uM P1; 50 mM NaCl, 10 mM Tris-HCl pH 8.0, 0.5 mM EDTA, 1 mM DTT, 5% glycerol; 6% native PAGE in TAE at 4 C; incubation temperature not stated. The settings on record: protein: recombinant, tags: none stated (expressed from pET22b), label: 5'-32P when used as probe. On the technique in general: Mobility shift assays separate free from complexed probe on a gel.
T2 sequence (P38398 230-534): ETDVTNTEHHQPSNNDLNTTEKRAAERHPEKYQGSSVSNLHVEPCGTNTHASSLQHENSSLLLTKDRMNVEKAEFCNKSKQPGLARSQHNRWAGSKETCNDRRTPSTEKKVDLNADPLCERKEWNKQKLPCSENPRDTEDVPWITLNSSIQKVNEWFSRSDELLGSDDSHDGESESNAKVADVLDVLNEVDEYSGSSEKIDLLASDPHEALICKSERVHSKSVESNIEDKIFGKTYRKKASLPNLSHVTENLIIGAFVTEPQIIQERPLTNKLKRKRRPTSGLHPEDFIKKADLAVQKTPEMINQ

In data set [3] the target is T2, BRCA1 230-534. The experiment in a line: EMSA; 1-5 uM P1, 0.5 uM DNA; 50 mM NaCl, 10 mM Tris-HCl pH 8.0, 0.5 mM EDTA, 1 mM DTT, 5% glycerol; 6% native PAGE in TAE at 4 C; incubation temperature not stated. As to conditions: protein: recombinant; tags: none stated (expressed from pET22b); label: 5'-32P when used as probe; duplex.
For data set [4], the target named is T1, p53 (GST fusion). Kind of data set: EMSA; 100-500 nM GST-p53, no BRCA1; no binding at 200 nM (lane 8); 50 mM NaCl, 10 mM Tris-HCl pH 8.0, 0.5 mM EDTA, 1 mM DTT, 5% glycerol; 6% native PAGE in TAE at 4 C; incubation temperature not stated. As to conditions: protein: recombinant; tags: N-terminal GST, uncleaved (pGEX2TKp53); chain copies: 4; label: 5'-32P when used as probe; four-way junction.

[5] abbreviates: duplex with C:C mismatches (design after triple lesions).

This note sets out measurements from paper PMC2396507, “Analysis of the DNA Binding Activity of BRCA1 and Its Modulation by the Tumour Suppressor p53”.

T1 sequence (P04637 whole entry, the tested form may be a part): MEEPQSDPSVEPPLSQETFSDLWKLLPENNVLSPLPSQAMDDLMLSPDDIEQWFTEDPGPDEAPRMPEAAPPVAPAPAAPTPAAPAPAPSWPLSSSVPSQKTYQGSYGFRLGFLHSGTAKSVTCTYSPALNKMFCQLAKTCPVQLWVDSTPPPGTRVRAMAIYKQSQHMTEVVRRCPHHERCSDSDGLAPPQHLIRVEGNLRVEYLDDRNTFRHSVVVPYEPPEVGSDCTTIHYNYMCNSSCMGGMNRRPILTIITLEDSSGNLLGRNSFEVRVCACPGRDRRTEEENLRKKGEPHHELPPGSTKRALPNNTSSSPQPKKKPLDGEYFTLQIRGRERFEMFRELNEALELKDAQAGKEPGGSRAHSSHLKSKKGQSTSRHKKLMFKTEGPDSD

B1: bulge containing DNA (dsDNA)
DNA 1: CACGCTAAGTCCGATGCGTGAGATCCGC
DNA 2: GCGGATCTCACGCGTATCGGACTTAGCGTG
As to B1, the binding result in the data set with p53 (GST fusion) [1] (duplex with bulge) was “no binding”. Also, the binding signal with BRCA1 230-534 [2] (duplex with bulge) was 65 % reduction of P1 bound to labelled linear duplex at equimolar competitor.

B2: C:C mismatch DNA (dsDNA)
DNA 1: CCCTCGGAGCACTGCACAACCCCTGGCCGCCG
DNA 2: CGGCGGCCAGCGGTTCTGCACTGCTCCGAGGG
With B2, in the data set with p53 (GST fusion) [1] (setting [5]), the binding result is “no binding”. Besides, the binding signal with BRCA1 230-534 [2] (setting [5]) is 70 % reduction of P1 bound to labelled linear duplex at equimolar competitor.

B3: linear duplex DNA (dsDNA)
DNA 1: CCCTCGGAGCACTGCACAACCCCTGGCCGCCG
DNA 2: CGGCGGCCAGGGGTTGTGCAGTGCTCCGAGGG
On to B3, for which the binding result in the data set with BRCA1 230-534 [3] was “binds”.

B4: four-way junction DNA (structured_DNA)
DNA 1: AGATCTGGCGTTAGGTGATACCGATGCATC
DNA 2: CATGCATCGGTATCAGGCTTACGACTAGTG
DNA 3: CACTAGTCGTAAGCCACTCGTGCTGAATTC
DNA 4: GAATTCAGCACGAGTCCTAACGCCAGATCT
Take B4: in the data set with p53 (GST fusion) [4], the binding result is “binds”. For the same molecule, the binding signal with BRCA1 230-534 [2] (four-way junction) is 91 % reduction of P1 bound to labelled linear duplex at equimolar competitor.
